Data taken from US20160272683A1 (Novo Nordisk, published 2016).
Numbered stars: 1 amine (or outer) side, 2 acyl side, 3 side chain; on linkers, the order of the positions; unused ones are H or OH. Side chains are listed from the residue outwards. Ends that are not written are not given here. * marks the point of attachment. C20 diacid = O=C(O)CCCCCCCCCCCCCCCCCCC(=O)*; C18 diacid = O=C(O)CCCCCCCCCCCCCCCCC(=O)*; γGlu = O=C(O)[C@H](CCC(=O)[*:2])N[*:1]

T1: human amylin 3(a) receptor (human calcitonin receptor co-expressed with RAMP-3) on BHK570/CRE-luc cells (human, UniProt P30988 25-474; O60896 24-148)
T1 sequence (looked up) 1: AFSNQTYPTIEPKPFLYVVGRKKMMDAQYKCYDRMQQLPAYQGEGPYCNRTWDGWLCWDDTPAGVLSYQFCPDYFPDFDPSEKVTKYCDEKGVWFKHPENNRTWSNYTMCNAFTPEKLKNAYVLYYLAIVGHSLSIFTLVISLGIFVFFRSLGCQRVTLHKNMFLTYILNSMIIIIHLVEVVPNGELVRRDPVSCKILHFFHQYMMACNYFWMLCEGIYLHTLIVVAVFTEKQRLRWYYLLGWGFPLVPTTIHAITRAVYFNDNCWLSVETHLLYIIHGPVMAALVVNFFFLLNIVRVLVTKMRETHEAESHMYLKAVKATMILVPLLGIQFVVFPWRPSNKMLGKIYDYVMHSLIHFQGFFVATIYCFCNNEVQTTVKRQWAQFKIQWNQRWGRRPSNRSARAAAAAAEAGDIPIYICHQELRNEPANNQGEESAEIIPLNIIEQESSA
T1 sequence (looked up) 2: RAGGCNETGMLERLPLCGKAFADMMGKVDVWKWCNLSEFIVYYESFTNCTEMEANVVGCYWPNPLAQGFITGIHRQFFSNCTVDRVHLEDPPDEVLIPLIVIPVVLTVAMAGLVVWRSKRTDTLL

T2: human calcitonin receptor on BHK570/CRE-luc cells (human, UniProt P30988 25-474)
T2 sequence (looked up): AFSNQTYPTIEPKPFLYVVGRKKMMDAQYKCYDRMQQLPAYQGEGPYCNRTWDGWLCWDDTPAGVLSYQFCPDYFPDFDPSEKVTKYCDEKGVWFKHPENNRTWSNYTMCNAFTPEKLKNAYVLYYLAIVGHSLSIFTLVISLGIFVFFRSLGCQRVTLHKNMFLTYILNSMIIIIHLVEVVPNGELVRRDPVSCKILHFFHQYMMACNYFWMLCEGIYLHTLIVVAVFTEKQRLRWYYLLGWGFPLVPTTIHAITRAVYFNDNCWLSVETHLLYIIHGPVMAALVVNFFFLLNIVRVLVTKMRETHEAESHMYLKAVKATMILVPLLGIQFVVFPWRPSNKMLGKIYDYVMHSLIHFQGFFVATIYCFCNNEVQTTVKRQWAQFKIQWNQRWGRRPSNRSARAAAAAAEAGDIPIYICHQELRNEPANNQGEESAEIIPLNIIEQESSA


What was measured:
[1] = molecular target: T1, human amylin 3(a) receptor (human …); experiment: cell-based or functional assay
[2] = molecular target: T2, human calcitonin receptor on …; experiment: cell-based or functional assay

Row | Binder | hAmylin-R funct. EC50 (pM), tested with HSA [1] [pM] | hCTR funct. EC50 (pM), tested with HSA [2] [pM]
1 | {C20 diacid-γGlu}-ASGLSTAALGRLSQELHELETYPRTETGSGTY-NH2 (SMILES CC(C)C[C@H](NC(=O)CNC(=O)[C@H](CO)NC(=O)[C@H](C)NC(=O)CC[C@H](NC(=O)CCCCCCCCCCCCCCCCCCC(=O)O)C(=O)O)C(=O)N[C@@H](CO)C(=O)N[C@H](C(=O)N[C@@H](C)C(=O)N[C@@H](C)C(=O)N[C@@H](CC(C)C)C(=O)NCC(=O)N[C@@H](CCCNC(=N)N)C(=O)N[C@@H](CC(C)C)C(=O)N[C@@H](CO)C(=O)N[C@@H](CCC(N)=O)C(=O)N[C@@H](CCC(=O)O)C(=O)N[C@@H](CC(C)C)C(=O)N[C@@H](Cc1c[nH]cn1)C(=O)N[C@@H](CCC(=O)O)C(=O)N[C@@H](CC(C)C)C(=O)N[C@@H](CCC(=O)O)C(=O)N[C@H](C(=O)N[C@@H](Cc1ccc(O)cc1)C(=O)N1CCC[C@H]1C(=O)N[C@@H](CCCNC(=N)N)C(=O)N[C@H](C(=O)N[C@@H](CCC(=O)O)C(=O)N[C@H](C(=O)NCC(=O)N[C@@H](CO)C(=O)NCC(=O)N[C@H](C(=O)N[C@@H](Cc1ccc(O)cc1)C(N)=O)[C@@H](C)O)[C@@H](C)O)[C@@H](C)O)[C@@H](C)O)[C@@H](C)O) [[N-terminal(C20 diacid-gGlu), des1, 4G, 15Q, 21E, 23Y, 30S, 31G, 32T, 33Y]mimylin] | 150 | 68
2 | {C18 diacid-γGlu}-ASGLSTAALGRLSQELHELQTYPRTETGSGTY-NH2 (SMILES CC(C)C[C@H](NC(=O)CNC(=O)[C@H](CO)NC(=O)[C@H](C)NC(=O)CC[C@H](NC(=O)CCCCCCCCCCCCCCCCC(=O)O)C(=O)O)C(=O)N[C@@H](CO)C(=O)N[C@H](C(=O)N[C@@H](C)C(=O)N[C@@H](C)C(=O)N[C@@H](CC(C)C)C(=O)NCC(=O)N[C@@H](CCCNC(=N)N)C(=O)N[C@@H](CC(C)C)C(=O)N[C@@H](CO)C(=O)N[C@@H](CCC(N)=O)C(=O)N[C@@H](CCC(=O)O)C(=O)N[C@@H](CC(C)C)C(=O)N[C@@H](Cc1c[nH]cn1)C(=O)N[C@@H](CCC(=O)O)C(=O)N[C@@H](CC(C)C)C(=O)N[C@@H](CCC(N)=O)C(=O)N[C@H](C(=O)N[C@@H](Cc1ccc(O)cc1)C(=O)N1CCC[C@H]1C(=O)N[C@@H](CCCNC(=N)N)C(=O)N[C@H](C(=O)N[C@@H](CCC(=O)O)C(=O)N[C@H](C(=O)NCC(=O)N[C@@H](CO)C(=O)NCC(=O)N[C@H](C(=O)N[C@@H](Cc1ccc(O)cc1)C(N)=O)[C@@H](C)O)[C@@H](C)O)[C@@H](C)O)[C@@H](C)O)[C@@H](C)O) [[N-terminal(C18 diacid-gGlu), des1, 4G, 15Q, 21Q, 23Y, 30S, 31G, 32T, 33Y]mimylin] | 70 | 53
3 | {C20 diacid-γGlu}-ASGLSTAALGRLSEELHELQTYPRTETGSGTY-NH2 (SMILES CC(C)C[C@H](NC(=O)CNC(=O)[C@H](CO)NC(=O)[C@H](C)NC(=O)CC[C@H](NC(=O)CCCCCCCCCCCCCCCCCCC(=O)O)C(=O)O)C(=O)N[C@@H](CO)C(=O)N[C@H](C(=O)N[C@@H](C)C(=O)N[C@@H](C)C(=O)N[C@@H](CC(C)C)C(=O)NCC(=O)N[C@@H](CCCNC(=N)N)C(=O)N[C@@H](CC(C)C)C(=O)N[C@@H](CO)C(=O)N[C@@H](CCC(=O)O)C(=O)N[C@@H](CCC(=O)O)C(=O)N[C@@H](CC(C)C)C(=O)N[C@@H](Cc1c[nH]cn1)C(=O)N[C@@H](CCC(=O)O)C(=O)N[C@@H](CC(C)C)C(=O)N[C@@H](CCC(N)=O)C(=O)N[C@H](C(=O)N[C@@H](Cc1ccc(O)cc1)C(=O)N1CCC[C@H]1C(=O)N[C@@H](CCCNC(=N)N)C(=O)N[C@H](C(=O)N[C@@H](CCC(=O)O)C(=O)N[C@H](C(=O)NCC(=O)N[C@@H](CO)C(=O)NCC(=O)N[C@H](C(=O)N[C@@H](Cc1ccc(O)cc1)C(N)=O)[C@@H](C)O)[C@@H](C)O)[C@@H](C)O)[C@@H](C)O)[C@@H](C)O) [[N-terminal(C20 diacid-gGlu), des1, 4G, 15E, 21Q, 23Y, 30S, 31G, 32T, 33Y]mimylin] | 159 | 57
4 | {C20 diacid}-ASGLSTAALGRLSQELHELQTYPRTETGSGTY-NH2 (SMILES CC(C)C[C@H](NC(=O)CNC(=O)[C@H](CO)NC(=O)[C@H](C)NC(=O)CCCCCCCCCCCCCCCCCCC(=O)O)C(=O)N[C@@H](CO)C(=O)N[C@H](C(=O)N[C@@H](C)C(=O)N[C@@H](C)C(=O)N[C@@H](CC(C)C)C(=O)NCC(=O)N[C@@H](CCCNC(=N)N)C(=O)N[C@@H](CC(C)C)C(=O)N[C@@H](CO)C(=O)N[C@@H](CCC(N)=O)C(=O)N[C@@H](CCC(=O)O)C(=O)N[C@@H](CC(C)C)C(=O)N[C@@H](Cc1c[nH]cn1)C(=O)N[C@@H](CCC(=O)O)C(=O)N[C@@H](CC(C)C)C(=O)N[C@@H](CCC(N)=O)C(=O)N[C@H](C(=O)N[C@@H](Cc1ccc(O)cc1)C(=O)N1CCC[C@H]1C(=O)N[C@@H](CCCNC(=N)N)C(=O)N[C@H](C(=O)N[C@@H](CCC(=O)O)C(=O)N[C@H](C(=O)NCC(=O)N[C@@H](CO)C(=O)NCC(=O)N[C@H](C(=O)N[C@@H](Cc1ccc(O)cc1)C(N)=O)[C@@H](C)O)[C@@H](C)O)[C@@H](C)O)[C@@H](C)O)[C@@H](C)O) [[N-terminal(C20 diacid), des1, 4G, 15Q, 21Q, 23Y, 30S, 31G, 32T, 33Y]mimylin] | 52 | 49

Second part, the binder after the results:

Row | hAmylin-R funct. EC50 (pM), tested with HSA [1] [pM] | hCTR funct. EC50 (pM), tested with HSA [2] [pM] | Binder
5 | 335 | 113 | ASGLSTAALGRLSQELHELQTYPRTETGSK([γGlu-C20 diacid])TY-NH2 (N-terminus assumed; SMILES CC(C)C[C@H](NC(=O)CNC(=O)[C@H](CO)NC(=O)[C@H](C)N)C(=O)N[C@@H](CO)C(=O)N[C@H](C(=O)N[C@@H](C)C(=O)N[C@@H](C)C(=O)N[C@@H](CC(C)C)C(=O)NCC(=O)N[C@@H](CCCNC(=N)N)C(=O)N[C@@H](CC(C)C)C(=O)N[C@@H](CO)C(=O)N[C@@H](CCC(N)=O)C(=O)N[C@@H](CCC(=O)O)C(=O)N[C@@H](CC(C)C)C(=O)N[C@@H](Cc1c[nH]cn1)C(=O)N[C@@H](CCC(=O)O)C(=O)N[C@@H](CC(C)C)C(=O)N[C@@H](CCC(N)=O)C(=O)N[C@H](C(=O)N[C@@H](Cc1ccc(O)cc1)C(=O)N1CCC[C@H]1C(=O)N[C@@H](CCCNC(=N)N)C(=O)N[C@H](C(=O)N[C@@H](CCC(=O)O)C(=O)N[C@H](C(=O)NCC(=O)N[C@@H](CO)C(=O)N[C@@H](CCCCNC(=O)CC[C@H](NC(=O)CCCCCCCCCCCCCCCCCCC(=O)O)C(=O)O)C(=O)N[C@H](C(=O)N[C@@H](Cc1ccc(O)cc1)C(N)=O)[C@@H](C)O)[C@@H](C)O)[C@@H](C)O)[C@@H](C)O)[C@@H](C)O) [[des1, 4G, 15Q, 21Q, 23Y, 30S, 31K(C20 diacid-gGlu), 32T, 33Y]mimylin]
6 | 158 | 108 | {C20 diacid-γGlu}-ASGLSTAALGRLSQELHELQTYPRTETGSQTY-NH2 (SMILES CC(C)C[C@H](NC(=O)CNC(=O)[C@H](CO)NC(=O)[C@H](C)NC(=O)CC[C@H](NC(=O)CCCCCCCCCCCCCCCCCCC(=O)O)C(=O)O)C(=O)N[C@@H](CO)C(=O)N[C@H](C(=O)N[C@@H](C)C(=O)N[C@@H](C)C(=O)N[C@@H](CC(C)C)C(=O)NCC(=O)N[C@@H](CCCNC(=N)N)C(=O)N[C@@H](CC(C)C)C(=O)N[C@@H](CO)C(=O)N[C@@H](CCC(N)=O)C(=O)N[C@@H](CCC(=O)O)C(=O)N[C@@H](CC(C)C)C(=O)N[C@@H](Cc1c[nH]cn1)C(=O)N[C@@H](CCC(=O)O)C(=O)N[C@@H](CC(C)C)C(=O)N[C@@H](CCC(N)=O)C(=O)N[C@H](C(=O)N[C@@H](Cc1ccc(O)cc1)C(=O)N1CCC[C@H]1C(=O)N[C@@H](CCCNC(=N)N)C(=O)N[C@H](C(=O)N[C@@H](CCC(=O)O)C(=O)N[C@H](C(=O)NCC(=O)N[C@@H](CO)C(=O)N[C@@H](CCC(N)=O)C(=O)N[C@H](C(=O)N[C@@H](Cc1ccc(O)cc1)C(N)=O)[C@@H](C)O)[C@@H](C)O)[C@@H](C)O)[C@@H](C)O)[C@@H](C)O) [[N-terminal(C20 diacid-gGlu), des1, 4G, 15Q, 21Q, 23Y, 30S, 31Q, 32T, 33Y]mimylin]
7 | 291 | 67 | {C20 diacid-γGlu}-ASGLSTAALGRLSTELHELETYPRTETGSGTY-NH2 (SMILES CC(C)C[C@H](NC(=O)CNC(=O)[C@H](CO)NC(=O)[C@H](C)NC(=O)CC[C@H](NC(=O)CCCCCCCCCCCCCCCCCCC(=O)O)C(=O)O)C(=O)N[C@@H](CO)C(=O)N[C@H](C(=O)N[C@@H](C)C(=O)N[C@@H](C)C(=O)N[C@@H](CC(C)C)C(=O)NCC(=O)N[C@@H](CCCNC(=N)N)C(=O)N[C@@H](CC(C)C)C(=O)N[C@@H](CO)C(=O)N[C@H](C(=O)N[C@@H](CCC(=O)O)C(=O)N[C@@H](CC(C)C)C(=O)N[C@@H](Cc1c[nH]cn1)C(=O)N[C@@H](CCC(=O)O)C(=O)N[C@@H](CC(C)C)C(=O)N[C@@H](CCC(=O)O)C(=O)N[C@H](C(=O)N[C@@H](Cc1ccc(O)cc1)C(=O)N1CCC[C@H]1C(=O)N[C@@H](CCCNC(=N)N)C(=O)N[C@H](C(=O)N[C@@H](CCC(=O)O)C(=O)N[C@H](C(=O)NCC(=O)N[C@@H](CO)C(=O)NCC(=O)N[C@H](C(=O)N[C@@H](Cc1ccc(O)cc1)C(N)=O)[C@@H](C)O)[C@@H](C)O)[C@@H](C)O)[C@@H](C)O)[C@@H](C)O)[C@@H](C)O) [[N-terminal(C20 diacid-gGlu), des1, 4G, 15T, 21E, 23Y, 30S, 31G, 32T, 33Y]mimylin]
